Experiments:
[1] = biological target: human wild type FLT3 (human) (UniProt P36888); assay: cell-based or functional assay
[2] = biological target: human wild type CD123 (human) (UniProt P26951); assay: cell-based or functional assay
Sequence of UniProt P26951 (P26951 19-378 limits assumed): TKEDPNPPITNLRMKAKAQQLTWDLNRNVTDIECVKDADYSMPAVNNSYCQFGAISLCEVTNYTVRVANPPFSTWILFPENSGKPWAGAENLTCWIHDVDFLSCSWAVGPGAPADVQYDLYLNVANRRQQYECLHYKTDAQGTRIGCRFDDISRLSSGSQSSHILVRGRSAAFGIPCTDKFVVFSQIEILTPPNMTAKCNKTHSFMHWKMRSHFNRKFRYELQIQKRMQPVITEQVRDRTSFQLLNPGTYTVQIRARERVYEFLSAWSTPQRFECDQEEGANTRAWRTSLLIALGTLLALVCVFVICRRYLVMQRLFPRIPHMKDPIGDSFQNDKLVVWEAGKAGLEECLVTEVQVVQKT

| Substance | surviving K562 target cells at E:T=10 relative to E:T=0 [1] [%] | surviving K562 target cells at E:T=10 relative to E:T=0 [2] [%] |
| --- | --- | --- |
| 4G8-CAR (IgG4 hinge, CD28 TM, CD28z, CD3z) targeting FLT3 domain 4 | < 2 | – |
| CSL362-CAR (CD8a hinge, CD28 TM, CD28z, CD3z) targeting CD123 N-terminal domain | – | < 2 |

— patent publication US20250170182A1
